Measurements published in patent US20050226813A1, “Labelled somatostatin analogs backbone cyclized through metal complexation” (priority 2002, published 2005).
Each block holds one binder with its values, some of them ahead of it. *1 amine or outer side, *2 acyl side, *3 side chain or, on linkers, in order; H or OH if unused. Where no end group is shown, it is not given here. [ ]: non-standard residue; d: D form. ReO = oxorhenium(V), one metal core binding both hemi-chelators, from trichlorooxobis(triphenylphosphine)rhenium(V); GlyN6 = Gly building unit carrying an omega-amine (Cys attached there); N(2-Aminoethyl)Gly = O=C(CN(CCN[*:3])[*:1])[*:2]

Target: T1, human cloned SST-R2 (human, UniProt P30874 1-369)
T1 construct: whole, on cells; Assayed as membrane preparations of CHO cells expressing the cloned receptor, not as intact cells; also called hSST-R2; human SST-R2
Assay: inhibition of 125I-Tyr11-SRIF-14 binding to membranes of CHO cells expressing cloned human SST-R2
Experimental: The SST analogs were tested for their potency in inhibition of the binding of ¹²⁵I-Tyr¹¹-SRIF (based on the method described by Raynor et. al., Molecular Pharmnacology 43: 838, 1993) to membrane preparations expressing the transmembranal SST receptors (SST-R1, 2, 3, 4 or 5). The receptor preparations used for these tests were either from the cloned human receptors selectively and stably expressed in Chinese Hamster Ovary (CHO) cells or from cell lines naturally expressing the SST-R5. Typically, cell membranes were homogenized in Tris buffer in the presence of protease inhibitors and incubated for 30-40 minutes with ¹²⁵I-Tyr¹¹-SRIF with different concentrations of the tested sample. The binding reactions were filtered, the filters were washed and the bound radioactivity was counted in β counter after addition of scintillation colution. Non specific binding was defined as the radioactivity remaining bound in the presence of 1 μM unlabeled SRIF-14.

T1 sequence (P30874 whole entry): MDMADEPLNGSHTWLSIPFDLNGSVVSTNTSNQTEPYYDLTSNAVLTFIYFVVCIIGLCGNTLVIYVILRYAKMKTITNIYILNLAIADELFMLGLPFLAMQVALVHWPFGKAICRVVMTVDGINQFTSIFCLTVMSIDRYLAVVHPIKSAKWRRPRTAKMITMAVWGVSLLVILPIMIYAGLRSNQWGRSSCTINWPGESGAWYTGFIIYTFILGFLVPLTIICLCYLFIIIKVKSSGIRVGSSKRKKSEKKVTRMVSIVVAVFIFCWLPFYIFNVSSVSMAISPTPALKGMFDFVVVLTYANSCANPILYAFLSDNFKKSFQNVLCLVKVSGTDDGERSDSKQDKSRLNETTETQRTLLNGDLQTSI

B3: ReO-GF-19 (peptide)
peptide: CXFWWKTFG
modifications: D-Cys at 1; GABA at 2 (written X); D-Trp at 5; GlyN3 building unit at 9 with L-Cys on its omega-amine; C-terminal amide; ReO (oxorhenium(V)) chelated by the two Cys closes the ring
- IC50: > 10 nM

B5: ReO-GF-28 (peptide)
peptide: CGFWWKTFG
modifications: not fully specified; D-Cys at 1; D-Trp at 5; GlyN3 building unit at 9 with D-Cys on its omega-amine; C-terminal amide; ReO (oxorhenium(V)) chelated by the two Cys closes the ring
- IC50: > 10 nM

B6: ReO-GF-44 (peptide)
peptide: CGFWWKTFG
modifications: not fully specified; D-Cys at 1; D-Trp at 5; GlyN2 building unit at 9 with D-Cys on its omega-amine; C-terminal amide; ReO (oxorhenium(V)) chelated by the two Cys closes the ring
- IC50: > 10 nM

B10: ReO-GF-47 (peptide)
peptide: CFWWKTFG
modifications: not fully specified; D-Cys at 1; D-Trp at 4; GlyN2 building unit at 8 with L-Cys on its omega-amine; C-terminal amide; ReO (oxorhenium(V)) chelated by the two Cys closes the ring
- IC50: > 10 nM

B11: ReO-GF-36 (peptide)
peptide: CXFWWKTFG
modifications: not fully specified; D-Cys at 1; GABA at 2 (written X); D-Trp at 5; GlyN2 building unit at 9 with D-Cys on its omega-amine; C-terminal amide; ReO (oxorhenium(V)) chelated by the two Cys closes the ring
- IC50: > 10 nM

B14: ReO-GF-48 (peptide)
peptide: CFWWKTFG
modifications: not fully specified; D-Cys at 1; D-Trp at 4; GlyN2 building unit at 8 with D-Cys on its omega-amine; C-terminal amide; ReO (oxorhenium(V)) chelated by the two Cys closes the ring
- IC50: > 10 nM

B15: ReO-GF-41 (peptide)
peptide: CGFW[dW]KTF[N(2-Aminoethyl)Gly](Cys)-NH2
modifications: bridge (positions not given here) via ReO; not fully specified (bridges); also: N2S2 oxorhenium(V) chelate via the two Cys
- IC50: > 10 nM

B18: ReO-GF-35 (peptide)
peptide: CXFWWKTFG
modifications: D-Cys at 1; GABA at 2 (written X); D-Trp at 5; GlyN2 building unit at 9 with L-Cys on its omega-amine; C-terminal amide; ReO (oxorhenium(V)) chelated by the two Cys closes the ring
- IC50: > 10 nM

B19: ReO-GF-45 (peptide)
peptide: CFW[dW]KTF[N(2-Aminoethyl)Gly](Cys)-NH2
modifications: bridge (positions not given here) via ReO; not fully specified (bridges); also: N2S2 oxorhenium(V) chelate via the two Cys
- IC50: > 10 nM

B22: ReO-GF-15 (peptide)
peptide: CFWWKTFG
modifications: not fully specified; D-Cys at 1; D-Trp at 4; GlyN6 building unit at 8 with L-Cys on its omega-amine; C-terminal amide; ReO (oxorhenium(V)) chelated by the two Cys closes the ring
- IC50: > 10 nM

B23: ReO-GF-42 (peptide)
peptide: CGFW[dW]KTF[N(2-Aminoethyl)Gly](dC)-NH2
modifications: bridge (positions not given here) via ReO; not fully specified (bridges); also: N2S2 oxorhenium(V) chelate via the two Cys
- IC50: > 10 nM

The next lines start with the values.

- IC50: 10 nM
B1: ReO-GF-39 (peptide)
peptide: CXFWWKTFG
modifications: D-Cys at 1; beta-Ala at 2 (written X); D-Trp at 5; GlyN2 building unit at 9 with L-Cys on its omega-amine; C-terminal amide; ReO (oxorhenium(V)) chelated by the two Cys closes the ring

- IC50: 10 nM
B2: ReO-GF-20 (peptide)
peptide: CXFWWKTFG
modifications: not fully specified; D-Cys at 1; GABA at 2 (written X); D-Trp at 5; GlyN3 building unit at 9 with D-Cys on its omega-amine; C-terminal amide; ReO (oxorhenium(V)) chelated by the two Cys closes the ring

- IC50: ~10 nM
B4: ReO-GF-18 (peptide)
peptide: CXFWWKTFG
modifications: L-Cys at 1; GABA at 2 (written X); D-Trp at 5; GlyN3 building unit at 9 with D-Cys on its omega-amine; C-terminal amide; ReO (oxorhenium(V)) chelated by the two Cys closes the ring

- IC50: 12 nM
B7: ReO-GF-4 (peptide)
peptide: CXFWWKTFG
modifications: not fully specified; D-Cys at 1; GABA at 2 (written X); D-Trp at 5; GlyN6 building unit at 9 with D-Cys on its omega-amine; C-terminal amide; ReO (oxorhenium(V)) chelated by the two Cys closes the ring

- IC50: 11 nM
B8: ReO-GF-22 (peptide)
peptide: CXFWWKTFG
modifications: L-Cys at 1; beta-Ala at 2 (written X); D-Trp at 5; GlyN3 building unit at 9 with D-Cys on its omega-amine; C-terminal amide; ReO (oxorhenium(V)) chelated by the two Cys closes the ring

- IC50: 1.6 nM
B9: ReO-GF-31 (peptide)
peptide: CFWWKTFG
modifications: not fully specified; D-Cys at 1; D-Trp at 4; GlyN3 building unit at 8 with L-Cys on its omega-amine; C-terminal amide; ReO (oxorhenium(V)) chelated by the two Cys closes the ring
notes: also called ReO-DCys*-Phe-Trp-DTrp-Lys-Thr-Phe-GlyN3(LCys*)-NH2

- IC50: 12 nM
B12: ReO-GF-7 (peptide)
peptide: CXFWWKTFG
modifications: not fully specified; D-Cys at 1; beta-Ala at 2 (written X); D-Trp at 5; GlyN6 building unit at 9 with L-Cys on its omega-amine; C-terminal amide; ReO (oxorhenium(V)) chelated by the two Cys closes the ring

- IC50: 5.3 nM
B13: ReO-GF-6 (peptide)
peptide: CXFWWKTFG
modifications: L-Cys at 1; beta-Ala at 2 (written X); D-Trp at 5; GlyN6 building unit at 9 with D-Cys on its omega-amine; C-terminal amide; ReO (oxorhenium(V)) chelated by the two Cys closes the ring
notes: also called ReO-GF-06; ReO-LCys*-βAla-Phe-Trp-DTrp-Lys-Thr-Phe-GlyN6(DCys*)-NH2

- IC50: 3.8 nM
B16: ReO-GF-2 (peptide)
peptide: CXFWWKTFG
modifications: L-Cys at 1; GABA at 2 (written X); D-Trp at 5; GlyN6 building unit at 9 with D-Cys on its omega-amine; C-terminal amide; ReO (oxorhenium(V)) chelated by the two Cys closes the ring
notes: also called ReO-GF-02; ReO-LCys*-GABA-Phe-Trp-DTrp-Lys-Thr-Phe-GlyN6(DCys*)-NH2

- IC50: 4 nM
B17: ReO-GF-11 (peptide)
peptide: CGFWWKTFG
modifications: not fully specified; D-Cys at 1; D-Trp at 5; GlyN6 building unit at 9 with L-Cys on its omega-amine; C-terminal amide; ReO (oxorhenium(V)) chelated by the two Cys closes the ring
notes: also called ReO-DCys*-Gly-Phe-Trp-DTrp-Lys-Thr-Phe-GlyN6(LCys*)-NH2

- IC50: 3 nM
B20: ReO-GF-37 (peptide)
peptide: CXFWWKTFG
modifications: L-Cys at 1; beta-Ala at 2 (written X); D-Trp at 5; GlyN2 building unit at 9 with L-Cys on its omega-amine; C-terminal amide; ReO (oxorhenium(V)) chelated by the two Cys closes the ring
notes: also called ReO-LCys*-βAla-Phe-Trp-DTrp-Lys-Thr-Phe-GlyN2(LCys*)-NH2

- IC50: 5 nM
B21: ReO-GF-8 (peptide)
peptide: CXFWWKTFG
modifications: not fully specified; D-Cys at 1; beta-Ala at 2 (written X); D-Trp at 5; GlyN6 building unit at 9 with D-Cys on its omega-amine; C-terminal amide; ReO (oxorhenium(V)) chelated by the two Cys closes the ring

- IC50: 20 nM
B24: ReO-GF-27 (peptide)
peptide: CGFWWKTFG
modifications: not fully specified; D-Cys at 1; D-Trp at 5; GlyN3 building unit at 9 with L-Cys on its omega-amine; C-terminal amide; ReO (oxorhenium(V)) chelated by the two Cys closes the ring

- IC50: ~10 nM
B25: ReO-GF-13 (peptide)
peptide: CFW[dW]KTF[GlyN6](Cys)-NH2
modifications: bridge (positions not given here) via ReO; not fully specified (bridges); also: oxorhenium(V) metal chelate (N2S2)
